From patent US20240124585A1 (SUTRO BIOPHARMA, published 2024)
Where two headings read alike, the source gives them in different places. Values belong to the binder of their own block, whether it stands above or below them.

Key:
[1] = biological target: T1, human CD3 epsilon (Acro Cat #CDE-H5223) (human, UniProt P07766 23-126); assay: SPR (Biacore), antibody captured, human CD3 epsilon analyte
T1 construct: Bought recombinant protein; also called rhCD3E
Experimental: (§1) Anti-Fab or anti-Fc polyclonal antibodies were immobilized onto a CM5 chip (GE Life Sciences) using amine coupling chemistry (from Amine Coupling Kit, GE Life Sciences). The immobilization steps were carried out at a flow rate of 25 μl/min in 1×HBS-EP+ buffer (GE Life Sciences; 10× Stock diluted before use). The sensor surfaces were activated for 7 min with a mixture of NHS (0.05 M) and EDC (0.2 M). The Anti-Fab or Anti-Fc antibodies were injected over all 4 flow cells at a concentration of 25 μg/mL in 10 mM sodium acetate, pH 4.5, for 7 min. Ethanolamine (1 M, pH 8.5) was injected for 7 min to block any remaining activated groups.
(§2) Off-rate and kinetic binding experiments were performed at 25° C. using 1×HBS-EP+ buffer. Test and control antibodies were injected over the anti-Fab or anti-Fc surface at concentrations of 5-10 μg/mL for 12 seconds at a flow rate of 10 μL/min on flow cells 2, 3 and 4, followed by a buffer wash for 30 seconds at the same flow rate. […] After capturing ligand (antibody) on the anti-Fc or anti-Fab surface, the analyte (human CD3 epsilon, Acro Cat #CDE-H5223) was bound for 180 seconds, followed by a 600 second dissociation phase at a flow rate of 50 μL/min. Between each ligand capture and analyte binding cycle, regeneration was carried out using two injections of 10 mM Glycine pH 2.0 for 30 seconds at 30 μL/min, followed by a 30 second buffer wash step.
(§3) The data was fit with the Biacore T200 Evaluation software, using a 1-1 Langmuir binding model. KD (affinity, nM) was determined as a ratio of the kinetic rate constants calculated from the fits of the association and dissociation phases.

[2] = biological target: T2, human CD3 on T-cell lines (CD3-expressing Jurkat cells; HUT78 cells) (human, UniProt P07766 23-207); assay: flow cytometry, HUT78 cells
T2 construct: On cells it stands in the CD3/TCR complex
T2 sequence (P07766 23-207 limits assumed): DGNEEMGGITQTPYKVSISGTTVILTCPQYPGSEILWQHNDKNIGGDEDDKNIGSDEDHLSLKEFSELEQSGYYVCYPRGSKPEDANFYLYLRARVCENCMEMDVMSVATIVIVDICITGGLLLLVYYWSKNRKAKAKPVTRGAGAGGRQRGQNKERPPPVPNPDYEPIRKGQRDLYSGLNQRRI

[3] = biological target: T1, human CD3 epsilon (Acro Cat #CDE-H5223); assay: SPR (Biacore), antibody captured, human CD3 epsilon analyte; remark: listed apart in the source
Experimental: as §1, §2, §3

T1 sequence (P07766 23-126 limits assumed): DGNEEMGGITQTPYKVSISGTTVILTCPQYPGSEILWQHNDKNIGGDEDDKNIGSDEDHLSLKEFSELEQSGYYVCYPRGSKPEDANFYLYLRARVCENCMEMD

B1: 2037-B10_Hc-A59D (antibody, human IgG1, lambda, V domains shown)
VH: EVQLVESGGGLVKPGGSLRLSCAASGFTFNKYAMNWVRQAPGKGLEWVARIRTKYNNYDTYYADSVKDRFTISRDDSKNTAYLQMNSLKTEDTAVYYCVRHGNFGNSYISYWAYWGQGTPVTVSS
VL: QTVVTQEPSLTVSPGGTVTLTCGSSTGAVTSGYYPNWLQQKPGQAPRGLIGGTKFLAPGTPARFSGSLLGGKAALTLSGVQPEDEAEYYCALWYSNRWVFGGGTQLTVTG
notes: human IgG1, lambda; also called SRP 2037 A59D; 2037-B10_VH-A59D
- Kd [1]: 0.476 nM
- koff [1]: 0.000251 s⁻¹
- kon [1]: 527000 M⁻¹ s⁻¹
- Bmax (MFI) [2]: 742 MFI
- Kd [2]: 0.07 nM

B4: 2037-B10_Hc-R52D (antibody, human IgG1, lambda, V domains shown)
VH: EVQLVESGGGLVKPGGSLRLSCAASGFTFNKYAMNWVRQAPGKGLEWVARIDTKYNNYATYYADSVKDRFTISRDDSKNTAYLQMNSLKTEDTAVYYCVRHGNFGNSYISYWAYWGQGTPVTVSS
VL: QTVVTQEPSLTVSPGGTVTLTCGSSTGAVTSGYYPNWLQQKPGQAPRGLIGGTKFLAPGTPARFSGSLLGGKAALTLSGVQPEDEAEYYCALWYSNRWVFGGGTQLTVTG
notes: human IgG1, lambda; also called SRP 2037 R52D; 2037-B10_VH-R52D
- Bmax (MFI) [2]: 142 MFI
- Kd [2]: 14.1 nM

B5: 2037-B10_Hc-N106D (antibody, human IgG1, lambda, V domains shown)
VH: EVQLVESGGGLVKPGGSLRLSCAASGFTFNKYAMNWVRQAPGKGLEWVARIRTKYNNYATYYADSVKDRFTISRDDSKNTAYLQMNSLKTEDTAVYYCVRHGNFGDSYISYWAYWGQGTPVTVSS
VL: QTVVTQEPSLTVSPGGTVTLTCGSSTGAVTSGYYPNWLQQKPGQAPRGLIGGTKFLAPGTPARFSGSLLGGKAALTLSGVQPEDEAEYYCALWYSNRWVFGGGTQLTVTG
notes: human IgG1, lambda; also called SRP 2037 N106D; 2037-B10_VH-N106D
- Kd [1]: 0.841 nM
- koff [1]: 0.000277 s⁻¹
- kon [1]: 329000 M⁻¹ s⁻¹
- Bmax (MFI) [2]: 1010 MFI
- Kd [2]: 0.26 nM

B6: SRP 2037-B10 F29D/R97D (antibody, human IgG1, lambda, V domains shown)
VH: EVQLVESGGGLVKPGGSLRLSCAASGFTDNKYAMNWVRQAPGKGLEWVARIRTKYNNYATYYADSVKDRFTISRDDSKNTAYLQMNSLKTEDTAVYYCVRHGNFGNSYISYWAYWGQGTPVTVSS
VL: QTVVTQEPSLTVSPGGTVTLTCGSSTGAVTSGYYPNWLQQKPGQAPRGLIGGTKFLAPGTPARFSGSLLGGKAALTLSGVQPEDEAEYYCALWYSNDWVFGGGTQLTVTG
notes: human IgG1, lambda
- Kd [3]: 185 nM
- koff [3]: 0.000761 s⁻¹
- kon [3]: 4110 M⁻¹ s⁻¹

The remaining binders from weak to strong by Kd [2], led by results:

- Kd [1]: 5.37 nM
- koff [1]: 0.000668 s⁻¹
- kon [1]: 124000 M⁻¹ s⁻¹
- Bmax (MFI) [2]: 216 MFI
- Kd [2]: 27.4 nM
B7: 2037-B10_Hc-N56D (antibody, human IgG1, lambda, V domains shown)
VH: EVQLVESGGGLVKPGGSLRLSCAASGFTFNKYAMNWVRQAPGKGLEWVARIRTKYDNYATYYADSVKDRFTISRDDSKNTAYLQMNSLKTEDTAVYYCVRHGNFGNSYISYWAYWGQGTPVTVSS
VL: QTVVTQEPSLTVSPGGTVTLTCGSSTGAVTSGYYPNWLQQKPGQAPRGLIGGTKFLAPGTPARFSGSLLGGKAALTLSGVQPEDEAEYYCALWYSNRWVFGGGTQLTVTG
notes: human IgG1, lambda; also called SRP 2037 N56D; 2037-B10_VH-N56D

- Bmax (MFI) [2]: 103 MFI
- Kd [2]: 8.57 nM
B8: 2037-B10_Hc-A33D (antibody, human IgG1, V domains shown)
VH: EVQLVESGGGLVKPGGSLRLSCAASGFTFNKYDMNWVRQAPGKGLEWVARIRTKYNNYATYYADSVKDRFTISRDDSKNTAYLQMNSLKTEDTAVYYCVRHGNFGNSYISYWAYWGQGTPVTVSS
VL: QTVVTQEPSLTVSPGGTVTLTCGSSTGAVTSGYYPNWLQQKPGQAPRGLIGGTKFLAPGTPARFSGSLLGGKAALTLSGVQPEDEAEYYCALWYSNRWVFGGGTQLTVTG
notes: human IgG1, lambda; also called SRP 2037 A33D; 2037-B10_VH-A33D

- Kd [1]: 0.596 nM
- koff [1]: 0.000265 s⁻¹
- kon [1]: 445000 M⁻¹ s⁻¹
- Bmax (MFI) [2]: 1220 MFI
- Kd [2]: 0.43 nM
B3: 2037-B10_Lc-N96D (antibody, V domains shown)
VH: not shown
VL: QTVVTQEPSLTVSPGGTVTLTCGSSTGAVTSGYYPNWLQQKPGQAPRGLIGGTKFLAPGTPARFSGSLLGGKAALTLSGVQPEDEAEYYCALWYSDRWVFGGGTQLTVTG
notes: human IgG1, lambda; also called SRP 2037 N96D; 2037-B10 VL-N96D

- Kd [1]: 0.36 nM
- koff [1]: 0.000189 s⁻¹
- kon [1]: 524000 M⁻¹ s⁻¹
- Bmax (MFI) [2]: 989 MFI
- Kd [2]: 0.22 nM
B2: 2037-B10_Hc-N30D (antibody, human IgG1, lambda, V domains shown)
VH: EVQLVESGGGLVKPGGSLRLSCAASGFTFDKYAMNWVRQAPGKGLEWVARIRTKYNNYATYYADSVKDRFTISRDDSKNTAYLQMNSLKTEDTAVYYCVRHGNFGNSYISYWAYWGQGTPVTVSS
VL: QTVVTQEPSLTVSPGGTVTLTCGSSTGAVTSGYYPNWLQQKPGQAPRGLIGGTKFLAPGTPARFSGSLLGGKAALTLSGVQPEDEAEYYCALWYSNRWVFGGGTQLTVTG
notes: human IgG1, lambda; also called SRP 2037 N30D; 2037-B10_VH-N30D
